Results taken from PMC2819980.

Assays:
[1] = tested on: NCCCP(=O)(O)OP(=O)(O)OC[C@H]1O[C@@H](n2ccc(N)nc2=O)[C@H](O)[C@@H]1O; assay: steady-state kinetics; type: biochemical, Streptomyces rubellomurinus
[2] = tested on: Nc1ccn([C@@H]2O[C@H](COP(=O)(O)OP(=O)(O)CCCNO)[C@@H](O)[C@H]2O)c(=O)n1; assay: steady-state kinetics; type: biochemical, Streptomyces rubellomurinus

**Q.** How did the Km [1] turn out when FrbF (Streptomyces rubellomurinus) was run?
**A.** 35.2 ± 3.2 µM

**Q.** And the kcat [1]?
**A.** 0.0577 ± 0.00267 s⁻¹

**Q.** What about the kcat/Km [1] of the same substance?
**A.** 1630 M⁻¹ s⁻¹

**Q.** And the Km [2]?
**A.** 52.3 ± 3.0 µM

**Q.** What about the kcat [2] of the same substance?
**A.** 0.034 ± 0.00717 s⁻¹

**Q.** And the kcat/Km [2]?
**A.** 650 M⁻¹ s⁻¹
